What was measured:
[1] = molecular target: human IL-13 wild type (human) (UniProt P35225); assay: column 'Affinity, KD (nM)', hIL-13wt; method not given
[2] = molecular target: human IL-13 variant (R130Q) (human) (UniProt P35225); assay: column 'Affinity, KD (nM)', hIL-13v; method not given
[3] = molecular target: human IL-13 variant (R130Q) (human) (UniProt P35225)
[4] = molecular target: cynomolgus monkey rIL-13 (cynomolgus monkey) (UniProt Q0PW92)
[5] = molecular target: human IL-13 wild type (human) (UniProt P35225)

Sequence of human IL-13 variant (R130Q) (human) (P35225 35-146 limits assumed, stated change not applied): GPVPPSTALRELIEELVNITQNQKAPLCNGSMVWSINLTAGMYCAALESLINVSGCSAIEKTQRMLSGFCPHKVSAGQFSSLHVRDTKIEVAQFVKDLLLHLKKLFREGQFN
Sequence of human IL-13 wild type (human) (P35225 other isoform, or with tags, fused parts or gaps limits assumed): as the sequence (P35225 35-146 limits assumed, stated change not applied) above, with Q110R counted along it
Sequence of cynomolgus monkey rIL-13 (cynomolgus monkey) (Q0PW92 entry or part of it): as the sequence (P35225 35-146 limits assumed, stated change not applied) above, with G1S, R10K, M42V, S67N, H83R, L100V counted along it

B1: 13C5, murine version (antibody, from another filing, V domains shown)
VH: QVTLKESGPGILQPSQTLSLTCSFSGFSLSTSDMGVDWIRQPSGKGLEWLAHIWWDDVKRYNPALKSRLTISKDTSSSQVFLMLASVDTADTATYYCARTVSSGYIYYAMDYWGQGTSVTVSS
VL: DIQMTQTASSLSASLGDRVTISCRASQDIRNYLNWYQRKPDGTVKLLIFYTSKLHSGVPSRFSGSGSGTDYSLTIRNLEQEDIATYFCQQGNTLPLTFGGGTKLEIKR
Kd [1]: 0.075 nM
Kd [2]: 0.076 nM
Potency, IC50 (neutralisation of hIL-13v; assay not given) [3]: 0.17 nM
Potency, IC50 (neutralisation of Cyno IL-13; assay not given) [4]: 0.9 nM
Potency, IC50 (neutralisation of hIL-13wt; assay not given) [5]: 0.19 nM

Reference: patent US20180079808A1
